This assay concerns the target casposon-encoded Aciduliprofundum boonei T469 Cas1 (Aciduliprofundum boonei T469). In words: SEC; Superdex 200 16/60, step of the purification after TEV cleavage; data not shown. Background: Size exclusion chromatography separates by hydrodynamic size, large species first.

Turning to “casposon-encoded Aciduliprofundum boonei T469 Cas1 (enzyme)”, the stoichiometry N is 2.

The stoichiometry N is the number of molecules, sites or subunits per partner or assembly.

The record behind these values is paper PMC4678821.
